# Experimental data as given in US20020081719.
# Tests used:
# PPARα/RXR heterodimer = PPARα/RXR heterodimer (UniProt Q07869+P19793); assay: EMSA; conditions: cooperativity ratio; 0.5 mM ZnCl2, 4 C
# PPARγ/RXR heterodimer = PPARγ/RXR heterodimer (UniProt P37231+P19793); assay: EMSA; conditions: 0.5 mM ZnCl2, 4 C
# [1] = cooperativity ratio, dimer and tetramer complexes
# Sequence of PPARγ/RXR heterodimer (P37231 whole entry, chain 1 of 2): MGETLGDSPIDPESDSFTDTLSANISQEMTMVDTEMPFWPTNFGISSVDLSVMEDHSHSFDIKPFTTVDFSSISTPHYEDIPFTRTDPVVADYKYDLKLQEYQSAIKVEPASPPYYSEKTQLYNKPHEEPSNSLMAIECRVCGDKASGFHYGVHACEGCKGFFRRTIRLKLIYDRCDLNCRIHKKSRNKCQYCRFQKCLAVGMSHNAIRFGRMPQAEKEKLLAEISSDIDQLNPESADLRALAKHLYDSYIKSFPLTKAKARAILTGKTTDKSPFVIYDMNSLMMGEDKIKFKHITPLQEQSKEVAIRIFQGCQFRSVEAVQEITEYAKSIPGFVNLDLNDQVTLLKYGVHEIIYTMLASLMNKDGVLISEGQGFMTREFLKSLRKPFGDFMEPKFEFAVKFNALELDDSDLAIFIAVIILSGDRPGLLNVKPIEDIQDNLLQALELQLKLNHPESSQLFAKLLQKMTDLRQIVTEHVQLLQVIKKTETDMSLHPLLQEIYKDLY
# Sequence of PPARγ/RXR heterodimer (P19793 whole entry, chain 2 of 2): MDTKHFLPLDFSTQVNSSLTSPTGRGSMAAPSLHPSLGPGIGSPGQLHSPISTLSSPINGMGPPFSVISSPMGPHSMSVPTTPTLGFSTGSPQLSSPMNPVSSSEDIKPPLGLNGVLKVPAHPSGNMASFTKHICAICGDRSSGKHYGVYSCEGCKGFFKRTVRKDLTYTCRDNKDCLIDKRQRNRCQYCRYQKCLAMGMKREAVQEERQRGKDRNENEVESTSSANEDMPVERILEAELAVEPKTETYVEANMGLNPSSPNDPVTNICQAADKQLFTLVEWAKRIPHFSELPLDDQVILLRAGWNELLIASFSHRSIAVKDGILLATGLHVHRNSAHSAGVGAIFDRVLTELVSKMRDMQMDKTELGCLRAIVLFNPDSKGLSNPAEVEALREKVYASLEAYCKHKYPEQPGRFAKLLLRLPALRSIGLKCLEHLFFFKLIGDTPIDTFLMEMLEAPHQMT
# Sequence of PPARα/RXR heterodimer (Q07869 whole entry, chain 1 of 2): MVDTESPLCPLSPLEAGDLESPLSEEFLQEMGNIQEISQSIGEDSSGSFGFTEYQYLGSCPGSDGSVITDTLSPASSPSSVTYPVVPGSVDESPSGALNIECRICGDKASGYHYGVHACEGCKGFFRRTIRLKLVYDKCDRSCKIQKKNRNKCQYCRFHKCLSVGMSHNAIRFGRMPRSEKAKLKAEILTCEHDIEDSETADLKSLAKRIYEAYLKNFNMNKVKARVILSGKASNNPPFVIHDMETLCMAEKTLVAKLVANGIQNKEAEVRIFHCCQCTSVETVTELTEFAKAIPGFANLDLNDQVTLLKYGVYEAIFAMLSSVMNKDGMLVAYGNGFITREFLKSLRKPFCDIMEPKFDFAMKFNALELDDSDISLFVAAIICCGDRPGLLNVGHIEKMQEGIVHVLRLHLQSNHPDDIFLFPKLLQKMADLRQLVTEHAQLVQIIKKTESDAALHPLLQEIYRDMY
# Sequence of PPARα/RXR heterodimer (P19793 whole entry, chain 2 of 2): as the sequence (P19793 whole entry, chain 2 of 2) above
Sequence,binding signal (PPARα/RXR heterodimer),cooperativity ratio (KdII/KdIV) (PPARγ/RXR heterodimer; [1]),"cooperativity ratio (KdII/KdIV) (PPARγ/RXR heterodimer; cooperativity ratio 34 +/- 11, 80% tetrameric)"
CAAAACTAGGTCAAAGGTCAAAACTAGGTCAAAGGTCA (double strand) [(DR1)2 17],7 KdII/KdIV,9 KdII/KdIV,
CAAAACTAGGTCAAAGGTCATCAAAACTAGGTCAAAGGTCA (double strand) [(DR1)2 21],11.2 KdII/KdIV,,34 KdII/KdIV
CAAAACTAGGTCAAAGGTCATGTCTTTAGGCCCAAAACTAGGTCAAAGGTCA (double strand) [(DR1)2 31],11.6 KdII/KdIV,12.6 KdII/KdIV,
